Assay results taken from publication PMC12581835, “A kinetic ruler controls mRNA poly(A) tail length”.
Blank lines part the entries; values can stand above or below the molecule they belong to.

Experiments:
[1] = biological target: Nab2-FRB (S. cerevisiae | not stated)
Nab2-6xHis [2] = biological target: T1, Nab2-6xHis (Saccharomyces cerevisiae, UniProt P32505 1-525); test: SEC-MALS; bimodal peak; one Nab2 with 1-3 A30; dimer less stable; switchSENSE: 12.5 mM HEPES-KOH pH 8.0, 75 mM KOAc, 1 mM Mg(OAc)2, 0.025 mM EDTA, 25 C; EMSA: polyadenylation buffer + 5% glycerol, 10 nM RNA, 30 C 1.5 h, native PAGE pH 6.4 at 4 C; details: protein: recombinant; tags: C-terminal 6xHis; single strand
T1 sequence: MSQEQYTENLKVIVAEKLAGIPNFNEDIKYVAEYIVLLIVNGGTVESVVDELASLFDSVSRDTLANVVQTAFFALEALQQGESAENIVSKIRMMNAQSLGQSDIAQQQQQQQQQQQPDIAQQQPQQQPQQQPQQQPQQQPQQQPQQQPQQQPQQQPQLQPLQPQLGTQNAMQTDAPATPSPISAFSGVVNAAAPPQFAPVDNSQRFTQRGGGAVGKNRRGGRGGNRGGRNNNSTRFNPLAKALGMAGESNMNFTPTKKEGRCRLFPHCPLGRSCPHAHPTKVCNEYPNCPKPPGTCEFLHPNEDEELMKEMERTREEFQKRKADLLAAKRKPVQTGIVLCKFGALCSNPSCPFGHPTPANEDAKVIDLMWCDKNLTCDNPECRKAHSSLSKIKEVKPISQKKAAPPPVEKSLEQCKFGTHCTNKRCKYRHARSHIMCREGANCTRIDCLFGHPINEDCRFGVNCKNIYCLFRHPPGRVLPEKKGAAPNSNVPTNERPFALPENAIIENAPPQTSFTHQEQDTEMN

Nab2-6xHis [3] = biological target: T1, Nab2-6xHis; test: EMSA; Hill coefficient 2.7; multiple shifted bands; switchSENSE: 12.5 mM HEPES-KOH pH 8.0, 75 mM KOAc, 1 mM Mg(OAc)2, 0.025 mM EDTA, 25 C; EMSA: polyadenylation buffer + 5% glycerol, 10 nM RNA, 30 C 1.5 h, native PAGE pH 6.4 at 4 C; details: protein: recombinant; tags: C-terminal 6xHis; label: Atto680; single strand
SII-Nab2 [4] = biological target: T2, SII-Nab2 (Saccharomyces cerevisiae, UniProt P32505 1-525); test: switchSENSE; kon 2.05e6 +/- 0.14e6 M-1 s-1; Kd only in Fig 2E table; switchSENSE: 12.5 mM HEPES-KOH pH 8.0, 75 mM KOAc, 1 mM Mg(OAc)2, 0.025 mM EDTA, 25 C; EMSA: polyadenylation buffer + 5% glycerol, 10 nM RNA, 30 C 1.5 h, native PAGE pH 6.4 at 4 C; details: protein: recombinant; tags: N-terminal SII; label: red dye on NL-B48; chip-tethered; 68 bp dsDNA (nicked) with 3' RNA overhang 60 nt
T2 sequence: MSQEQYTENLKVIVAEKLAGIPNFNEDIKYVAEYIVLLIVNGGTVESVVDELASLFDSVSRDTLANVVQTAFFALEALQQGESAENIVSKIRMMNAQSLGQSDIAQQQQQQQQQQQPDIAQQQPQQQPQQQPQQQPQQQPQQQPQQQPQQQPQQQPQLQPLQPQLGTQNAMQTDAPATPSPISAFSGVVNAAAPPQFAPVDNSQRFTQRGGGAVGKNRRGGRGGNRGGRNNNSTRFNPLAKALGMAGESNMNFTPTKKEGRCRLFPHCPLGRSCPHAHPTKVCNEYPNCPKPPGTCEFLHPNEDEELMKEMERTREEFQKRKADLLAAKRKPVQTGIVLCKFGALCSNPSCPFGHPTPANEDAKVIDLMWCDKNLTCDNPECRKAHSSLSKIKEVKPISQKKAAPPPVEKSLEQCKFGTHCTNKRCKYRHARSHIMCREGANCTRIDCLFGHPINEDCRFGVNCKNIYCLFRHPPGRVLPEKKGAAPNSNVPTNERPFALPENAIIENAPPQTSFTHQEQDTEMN

SII-Nab2 [5] = biological target: T2, SII-Nab2; test: switchSENSE; kon 1.2e6 +/- 0.17e6 M-1 s-1; Kd only in Fig 2E table; switchSENSE: 12.5 mM HEPES-KOH pH 8.0, 75 mM KOAc, 1 mM Mg(OAc)2, 0.025 mM EDTA, 25 C; EMSA: polyadenylation buffer + 5% glycerol, 10 nM RNA, 30 C 1.5 h, native PAGE pH 6.4 at 4 C; details: protein: recombinant; tags: N-terminal SII; label: red dye on NL-B48; chip-tethered; 68 bp dsDNA (nicked) with 3' RNA overhang 30 nt

modal poly(A) tail length of the substrate RNA that escaped early inhibition, 1 µM Nab2 with rapamycin (∼42 As in a reaction without rapamycin) [1]: 36 As
Molecule: Nab2-FKBP12

B1: A30 (R002) (ssRNA)
RNA: AAAAAAAAAAAAAAAAAAAAAAAAAAAAAA
modifications: phosphate
binding result (Nab2-6xHis [2]): binds

B2: Atto680-A59 (R003) (ssRNA)
RNA: AAAAAAAAAAAAAAAAAAAAAAAAAAAAAAAAAAAAAAAAAAAAAAAAAAAAAAAAAAA
binding result (Nab2-6xHis [3]): binds

B3: rA60 nanolever (mixed)
DNA 1: ATTGTGCTCGTCAGTAGTGTAAAAAAAAAAAAAAAAAAAAAAAAAAAAAAAAAAAAAAAAAAAAAAAAAAAAAAAAAAAA
DNA 2: ACACTACTGACGAGCACAATATCAGCGTTCGATGCTTCCGACTAATCAGCCATATCAGCTTACGACTA
DNA 3: TAGTCGTAAGCTGATATGGCTGATTAGTCGGAAGCATCGAACGCTGAT
modifications: 3' 60 nt RNA on DNA handle
binding signal (SII-Nab2 [4]): ~5 fold higher affinity than rA30

B4: rA30 nanolever (mixed)
DNA 1: ATTGTGCTCGTCAGTAGTGTAAAAAAAAAAAAAAAAAAAAAAAAAAAAAA
DNA 2: ACACTACTGACGAGCACAATATCAGCGTTCGATGCTTCCGACTAATCAGCCATATCAGCTTACGACTA
DNA 3: TAGTCGTAAGCTGATATGGCTGATTAGTCGGAAGCATCGAACGCTGAT
modifications: 3' 30 nt RNA on DNA handle
binding signal (SII-Nab2 [5]): ~0.2 affinity relative to rA60
